From IntAct's records for PubMed 29892012 come the findings set out here.

The chains are these.
B1: Coiled-coil alpha-helical rod protein 1 (Homo sapiens), Q8TD31 (parent)
chain: MFPPSGSTGLIPPSHFQARPLSTLPRMAPTWLSDIPLVQPPGHQDVSERRLDTQRPQVTMWERDVSSDRQEPGRRGRSWGLEGSQALSQQAEVIVRQLQELRRLEEEVRLLRETSLQQKMRLEAQAMELEALARAEKAGRAEAEGLRAALAGAEVVRKNLEEGSQRELEEVQRLHQEQLSSLTQAHEEALSSLTSKAEGLEKSLSSLETRRAGEAKELAEAQREAELLRKQLSKTQEDLEAQVTLVENLRKYVGEQVPSEVHSQTWELERQKLLETMQHLQEDRDSLHATAELLQVRVQSLTHILALQEEELTRKVQPSDSLEPEFTRKCQSLLNRWREKVFALMVQLKAQELEHSDSVKQLKGQVASLQEKVTSQSQEQAILQRSLQDKAAEVEVERMGAKGLQLELSRAQEARRRWQQQTASAEEQLRLVVNAVSSSQIWLETTMAKVEGAAAQLPSLNNRLSYAVRKVHTIRGLIARKLALAQLRQESCPLPPPVTDVSLELQQLREERNRLDAELQLSARLIQQEVGRAREQGEAERQQLSKVAQQLEQELQQTQESLASLGLQLEVARQGQQESTEEAASLRQELTQQQELYGQALQEKVAEVETRLREQLSDTERRLNEARREHAKAVVSLRQIQRRAAQEKERSQELRRLQEEARKEEGQRLARRLQELERDKNLMLATLQQEGLLSRYKQQRLLTVLPSLLDKKKSVVSSPRPPECSASAPVAAAVPTRESIKGSLSVLLDDLQDLSEAISKEEAVCQGDNLDRCSSSNPQMSS
B2: Centrosomal protein POC5 (Homo sapiens), Q8NA72 (parent)
chain: MSSDEEKYSLPVVQNDSSRGSSVSSNLQEEYEELLHYAIVTPNIEPCASQSSHPKGELVPDVRISTIHDILHSQGNNSEVRETAIEVGKGCDFHISSHSKTDESSPVLSPRKPSHPVMDFFSSHLLADSSSPATNSSHTDAHEILVSDFLVSDENLQKMENVLDLWSSGLKTNIISELSKWRLNFIDWHRMEMRKEKEKHAAHLKQLCNQINELKELQKTFEISIGRKDEVISSLSHAIGKQKEKIELMRTFFHWRIGHVRARQDVYEGKLADQYYQRTLLKKVWKVWRSVVQKQWKDVVERACQARAEEVCIQISNDYEAKVAMLSGALENAKAEIQRMQHEKEHFEDSMKKAFMRGVCALNLEAMTIFQNRNDAGIDSTNNKKEEYGPGVQGKEHSAHLDPSAPPMPLPVTSPLLPSPPAAVGGASATAVPSAASMTSTRAASASSVHVPVSALGAGSAATAASEEMYVPRVVTSAQQKAGRTITARITGRCDFASKNRISSSLAIMGVSPPMSSVVVEKHHPVTVQTIPQATAAKYPRTIHPESSTSASRSLGTRSAHTQSLTSVHSIKVVD
partner: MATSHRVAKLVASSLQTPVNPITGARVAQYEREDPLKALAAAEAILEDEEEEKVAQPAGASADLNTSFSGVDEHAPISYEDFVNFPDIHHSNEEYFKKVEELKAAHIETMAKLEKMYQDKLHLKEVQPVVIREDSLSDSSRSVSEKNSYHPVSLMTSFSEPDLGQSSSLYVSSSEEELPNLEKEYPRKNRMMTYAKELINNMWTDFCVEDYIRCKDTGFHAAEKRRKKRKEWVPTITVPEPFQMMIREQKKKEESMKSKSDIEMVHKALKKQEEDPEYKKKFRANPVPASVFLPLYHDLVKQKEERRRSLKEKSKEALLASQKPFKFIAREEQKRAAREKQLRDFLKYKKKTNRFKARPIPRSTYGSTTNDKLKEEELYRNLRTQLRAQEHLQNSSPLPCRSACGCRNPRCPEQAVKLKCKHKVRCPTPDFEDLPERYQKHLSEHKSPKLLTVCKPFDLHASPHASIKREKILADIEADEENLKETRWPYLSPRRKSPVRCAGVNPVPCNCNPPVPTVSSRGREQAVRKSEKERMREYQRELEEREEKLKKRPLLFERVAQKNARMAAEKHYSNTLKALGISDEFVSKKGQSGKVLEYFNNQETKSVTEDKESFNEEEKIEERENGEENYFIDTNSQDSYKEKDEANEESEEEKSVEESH

The variants in one assay derive from B1. The settings on record: with nutm1_human NUTM1, Q86Y26.
As to W337R, the “effect of a mutation on the interaction” value is recorded as “disrupting interaction strength”.

The variants in the next assay derive from B1. Particulars: with tekt1_human TEKT1, Q969V4.
Sequence of tekt1_human TEKT1, Q969V4 (Q969V4 whole entry): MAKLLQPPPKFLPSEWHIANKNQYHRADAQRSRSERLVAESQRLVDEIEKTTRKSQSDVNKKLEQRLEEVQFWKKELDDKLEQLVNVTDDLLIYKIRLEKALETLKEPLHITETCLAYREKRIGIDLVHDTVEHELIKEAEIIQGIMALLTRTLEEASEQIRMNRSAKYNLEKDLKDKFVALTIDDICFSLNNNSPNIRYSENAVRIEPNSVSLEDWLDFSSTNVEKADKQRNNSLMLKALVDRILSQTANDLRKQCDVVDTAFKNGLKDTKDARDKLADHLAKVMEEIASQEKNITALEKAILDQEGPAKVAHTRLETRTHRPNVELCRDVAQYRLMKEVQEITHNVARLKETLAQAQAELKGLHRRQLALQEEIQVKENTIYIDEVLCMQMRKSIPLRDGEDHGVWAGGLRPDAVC
For W337R, the “effect of a mutation on the interaction” value is given as “disrupting interaction strength”.

Variants of B1 are the subject of another assay. The settings on record: with amol2_human AMOTL2, Q9Y2J4.
Sequence of amol2_human AMOTL2, Q9Y2J4 (Q9Y2J4 whole entry): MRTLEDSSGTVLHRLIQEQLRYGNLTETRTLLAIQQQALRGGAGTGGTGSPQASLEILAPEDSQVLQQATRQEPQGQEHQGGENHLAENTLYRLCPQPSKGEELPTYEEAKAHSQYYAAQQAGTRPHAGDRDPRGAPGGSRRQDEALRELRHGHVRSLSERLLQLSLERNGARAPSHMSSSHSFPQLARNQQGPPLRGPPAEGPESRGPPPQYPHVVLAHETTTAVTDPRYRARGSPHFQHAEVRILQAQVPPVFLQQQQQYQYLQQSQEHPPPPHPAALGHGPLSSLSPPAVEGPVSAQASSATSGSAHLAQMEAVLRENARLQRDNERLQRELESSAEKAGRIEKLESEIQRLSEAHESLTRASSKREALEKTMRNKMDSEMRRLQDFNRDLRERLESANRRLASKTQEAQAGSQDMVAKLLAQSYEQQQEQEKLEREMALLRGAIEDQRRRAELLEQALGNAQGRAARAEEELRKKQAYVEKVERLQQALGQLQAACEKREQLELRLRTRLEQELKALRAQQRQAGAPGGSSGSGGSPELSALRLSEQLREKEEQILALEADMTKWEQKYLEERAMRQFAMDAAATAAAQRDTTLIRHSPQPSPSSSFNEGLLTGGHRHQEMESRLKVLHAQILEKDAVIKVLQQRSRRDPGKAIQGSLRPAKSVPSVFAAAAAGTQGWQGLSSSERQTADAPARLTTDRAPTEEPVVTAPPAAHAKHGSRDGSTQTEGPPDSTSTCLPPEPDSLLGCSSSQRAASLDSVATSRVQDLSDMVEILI
For the variant W337R, the “effect of a mutation on the interaction” value was “disrupting interaction strength”.

The variants in another assay derive from B1. Particulars: with k1h1_human KRT31, Q15323.
For the variant W337R, the “effect of a mutation on the interaction” value is on record as “with no effect”.

Another assay covers variants of B1. Particulars: with abi2_human ABI2, Q9NYB9.
With W337R, the “effect of a mutation on the interaction” value is “disrupting interaction strength”.

In another assay the parent is B1. Particulars: with txlnb_human TXLNB.
W337R: the “effect of a mutation on the interaction” value is recorded as “disrupting interaction strength”.

A further assay covers variants of B1. Particulars: with ndc80_human NDC80, O14777.
Sequence of ndc80_human NDC80, O14777 (O14777 whole entry): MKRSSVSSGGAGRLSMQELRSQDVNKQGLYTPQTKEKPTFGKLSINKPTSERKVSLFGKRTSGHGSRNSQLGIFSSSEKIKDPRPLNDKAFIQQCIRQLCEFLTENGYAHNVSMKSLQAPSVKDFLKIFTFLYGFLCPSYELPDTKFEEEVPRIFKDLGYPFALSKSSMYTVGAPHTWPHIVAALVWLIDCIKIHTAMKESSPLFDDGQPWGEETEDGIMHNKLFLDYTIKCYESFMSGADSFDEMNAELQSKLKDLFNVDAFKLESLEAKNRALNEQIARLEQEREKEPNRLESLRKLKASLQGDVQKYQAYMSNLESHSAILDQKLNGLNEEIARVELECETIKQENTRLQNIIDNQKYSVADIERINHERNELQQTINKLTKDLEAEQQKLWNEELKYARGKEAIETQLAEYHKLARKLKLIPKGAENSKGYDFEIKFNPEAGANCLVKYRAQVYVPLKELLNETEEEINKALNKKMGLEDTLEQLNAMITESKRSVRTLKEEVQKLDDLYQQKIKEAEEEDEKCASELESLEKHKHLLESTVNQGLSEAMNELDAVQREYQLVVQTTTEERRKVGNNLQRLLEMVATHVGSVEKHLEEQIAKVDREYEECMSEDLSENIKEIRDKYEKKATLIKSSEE
As to W337R, the “effect of a mutation on the interaction” value is given as “disrupting interaction strength”.

The variants in a further assay derive from B1. Particulars: with tpm3_human TPM3, P06753.
Sequence of tpm3_human TPM3, P06753 (P06753 whole entry): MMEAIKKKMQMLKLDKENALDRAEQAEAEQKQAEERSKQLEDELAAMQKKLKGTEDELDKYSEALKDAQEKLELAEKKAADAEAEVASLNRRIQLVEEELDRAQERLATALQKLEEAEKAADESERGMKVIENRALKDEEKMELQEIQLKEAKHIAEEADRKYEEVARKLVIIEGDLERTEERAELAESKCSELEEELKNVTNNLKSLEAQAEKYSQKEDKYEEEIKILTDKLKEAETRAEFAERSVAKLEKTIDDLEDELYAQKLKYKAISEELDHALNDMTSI
Regarding W337R, the “effect of a mutation on the interaction” value is reported as “disrupting interaction strength”.

In another assay the parent is B1. Particulars: with KRT15, P19012.
W337R: the “effect of a mutation on the interaction” value was “with no effect”.

In the next assay the parent is B1. Particulars: with atg5_human ATG5, Q9H1Y0.
Sequence of atg5_human ATG5, Q9H1Y0 (Q9H1Y0 whole entry): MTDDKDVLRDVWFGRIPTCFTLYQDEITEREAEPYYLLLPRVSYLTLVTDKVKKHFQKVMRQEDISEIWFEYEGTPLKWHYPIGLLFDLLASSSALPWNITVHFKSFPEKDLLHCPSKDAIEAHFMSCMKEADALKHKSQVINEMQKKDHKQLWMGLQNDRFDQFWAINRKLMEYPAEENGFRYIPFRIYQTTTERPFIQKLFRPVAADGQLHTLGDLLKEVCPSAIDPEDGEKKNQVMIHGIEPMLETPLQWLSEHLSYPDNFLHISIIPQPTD
For the variant W337R, the “effect of a mutation on the interaction” value is given as “disrupting interaction strength”.

In another assay the parent is B1. The settings on record: with cc136_human CCDC136, Q96JN2.
Sequence of cc136_human CCDC136, Q96JN2 (Q96JN2 whole entry): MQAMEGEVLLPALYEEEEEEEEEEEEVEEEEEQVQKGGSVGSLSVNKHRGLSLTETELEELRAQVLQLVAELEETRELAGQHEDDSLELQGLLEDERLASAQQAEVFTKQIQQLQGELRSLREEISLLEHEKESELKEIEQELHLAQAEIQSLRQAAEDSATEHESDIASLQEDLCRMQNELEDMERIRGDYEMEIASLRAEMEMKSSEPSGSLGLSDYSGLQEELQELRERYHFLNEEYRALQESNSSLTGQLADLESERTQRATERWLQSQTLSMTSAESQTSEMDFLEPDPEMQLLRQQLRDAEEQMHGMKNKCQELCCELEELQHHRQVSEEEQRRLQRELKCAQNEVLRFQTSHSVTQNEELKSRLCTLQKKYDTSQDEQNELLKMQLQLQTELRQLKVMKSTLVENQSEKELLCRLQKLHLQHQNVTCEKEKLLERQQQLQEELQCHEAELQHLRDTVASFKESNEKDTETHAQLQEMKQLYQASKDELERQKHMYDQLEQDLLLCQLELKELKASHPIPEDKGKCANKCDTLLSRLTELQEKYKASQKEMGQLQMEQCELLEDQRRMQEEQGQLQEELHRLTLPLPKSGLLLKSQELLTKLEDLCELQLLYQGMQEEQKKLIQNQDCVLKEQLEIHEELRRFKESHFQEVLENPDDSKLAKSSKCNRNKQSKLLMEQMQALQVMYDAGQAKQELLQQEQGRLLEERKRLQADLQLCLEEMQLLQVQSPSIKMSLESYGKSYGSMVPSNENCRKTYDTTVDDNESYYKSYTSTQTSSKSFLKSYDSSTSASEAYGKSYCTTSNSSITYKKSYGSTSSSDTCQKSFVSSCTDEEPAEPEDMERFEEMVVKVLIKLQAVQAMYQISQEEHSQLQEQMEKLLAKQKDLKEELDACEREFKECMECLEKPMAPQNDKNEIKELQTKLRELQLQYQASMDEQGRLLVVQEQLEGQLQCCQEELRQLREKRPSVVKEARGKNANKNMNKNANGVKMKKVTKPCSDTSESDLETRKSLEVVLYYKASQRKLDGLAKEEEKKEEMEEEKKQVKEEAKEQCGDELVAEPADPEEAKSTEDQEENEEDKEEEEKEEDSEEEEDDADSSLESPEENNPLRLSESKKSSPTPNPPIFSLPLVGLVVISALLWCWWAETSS
As to W337R, the “effect of a mutation on the interaction” value is listed as “with no effect”.

Another assay covers variants of B1. Particulars: with nup62_human NUP62, P37198.
Sequence of nup62_human NUP62, P37198 (P37198 whole entry): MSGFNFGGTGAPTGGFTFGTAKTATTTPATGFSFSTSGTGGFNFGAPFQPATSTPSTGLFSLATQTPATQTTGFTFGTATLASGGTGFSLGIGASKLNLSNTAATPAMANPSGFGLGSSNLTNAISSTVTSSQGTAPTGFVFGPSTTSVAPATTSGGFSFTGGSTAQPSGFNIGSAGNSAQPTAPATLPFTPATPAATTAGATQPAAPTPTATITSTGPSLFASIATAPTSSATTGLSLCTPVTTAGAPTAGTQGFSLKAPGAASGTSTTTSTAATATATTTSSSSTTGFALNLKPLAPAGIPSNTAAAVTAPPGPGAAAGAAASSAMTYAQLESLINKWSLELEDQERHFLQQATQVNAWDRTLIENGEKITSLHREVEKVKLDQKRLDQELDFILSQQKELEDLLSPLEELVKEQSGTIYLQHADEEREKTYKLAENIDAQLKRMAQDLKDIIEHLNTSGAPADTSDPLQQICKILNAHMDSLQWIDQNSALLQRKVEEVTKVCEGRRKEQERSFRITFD
Regarding W337R, the “effect of a mutation on the interaction” value is recorded as “with no effect”.

Variants of B1 are the subject of the next assay. The settings on record: with tsg10_human TSGA10, Q9BZW7.
Take W337R: the “effect of a mutation on the interaction” value is “disrupting interaction strength”.

The next assay covers variants of B1. Particulars: with anchr_human ZFYVE19, Q96K21.
Sequence of anchr_human ZFYVE19, Q96K21 (Q96K21 whole entry): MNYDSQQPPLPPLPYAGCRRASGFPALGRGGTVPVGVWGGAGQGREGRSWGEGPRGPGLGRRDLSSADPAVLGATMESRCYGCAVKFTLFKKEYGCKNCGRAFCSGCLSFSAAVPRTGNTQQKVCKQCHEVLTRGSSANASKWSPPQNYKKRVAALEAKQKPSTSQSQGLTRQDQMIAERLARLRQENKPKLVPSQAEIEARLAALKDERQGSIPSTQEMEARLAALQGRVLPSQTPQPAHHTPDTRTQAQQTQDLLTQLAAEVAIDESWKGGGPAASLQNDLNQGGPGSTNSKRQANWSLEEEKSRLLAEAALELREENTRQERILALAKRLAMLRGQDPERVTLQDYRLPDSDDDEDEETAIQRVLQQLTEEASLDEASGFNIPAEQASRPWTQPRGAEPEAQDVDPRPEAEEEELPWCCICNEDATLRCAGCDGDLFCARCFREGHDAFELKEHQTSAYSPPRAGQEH
In the case of W337R, the “effect of a mutation on the interaction” value is listed as “disrupting interaction strength”.

The next assay covers variants of B1. The settings on record: with sat1_human SAT1, P21673.
Sequence of sat1_human SAT1, P21673 (P21673 whole entry): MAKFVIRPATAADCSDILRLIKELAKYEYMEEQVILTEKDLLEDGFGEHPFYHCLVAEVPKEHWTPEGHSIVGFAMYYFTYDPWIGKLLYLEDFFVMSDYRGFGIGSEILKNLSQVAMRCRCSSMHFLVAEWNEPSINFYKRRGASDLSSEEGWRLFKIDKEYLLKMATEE
W337R: the “effect of a mutation on the interaction” value is given as “disrupting interaction strength”.

The variants in the next assay derive from B1. Particulars: with ndk7_human NME7, Q9Y5B8.
Turning to W337R, the “effect of a mutation on the interaction” value is “with no effect”.

Variants of B1 are the subject of the next assay. Particulars: with txlna_human TXLNA.
With W337R, the “effect of a mutation on the interaction” value is reported as “disrupting interaction strength”.

In the next assay the parent is B2. The settings on record: with FAM161A.
In the case of MSSDEEKYSLPVVQNDSSRGSSVSSNLQEEYEELLHYAIVTPNIEPCASQSSHPKGELVPDVRISTIHDILHSQGNNSEVRETAIEVGKGCDFHISSHSKTDESSPVLSPRKPSHPVMDFFSSHLLADSSSPATNSSHTDAHEILVSDFLVSDENLQKMENVLDLWSSGLKTNIISELSKWRLNFIDWHRMEMRKEKEKHAAHLKQLCNQINELKELQKTFEISIGRKDEVISSLSHAIGKQKEKIELMRTFFHWRIGHVRARQDVYEGKLADQYYQRTLLKKVWKVWRSVVQKQWKDVVERACQARAEEVCIQISNDYEAKVAMLSGALENAKAEIQRMQHEKEHFEDSMKKAFMRGVCALNLEAMTIFQNRNDAGIDSTNNKKEEYGPGVQGKEHSAHLDPSAPPMPLPVTSPLLPSPPAAVGGASATAVPSAASMTSTRAASASSVHVPVSALGAGSAATAASEETYVPRVVTSAQQKAGRTITARITGRCDFASKNRISSSLAIMGVSPPMSSVVVEKHHPVTVQTIPQATAAKYPRTIHPESSTSASRSLGTRSAHTQSLTSVHSIKVVD [M469T], the “effect of a mutation on the interaction” value was “with no effect”.
